Results on eight molecules are retold here after patent US12102667B2, “Polypeptides and antibiotics against gram-negative bacterium comprising the same” (priority 2021, dated 2024).

In series [1] the test system is E. coli. The following applies: cited from earlier work.
Series [2] concerns K. pneumoniae. The settings on record: K. pneumoniae CCARM 10143; cited from earlier work.
The test system of series [3] is E. coli. Kind of series: Checkerboard assay (MIC in combination, FIC index). The following applies: E. coli ATCC8738. The format is cell-based, Escherichia coli. The procedure:
LNT113 was vertically diluted 2-fold and the antibiotic was serially diluted horizontally in a 96-well plate. Bacterium at a concentration of 10^6 CFU/ml were added to each well in a CAA medium. […] The fractional inhibitory concentration (FIC) for the LNT113 or antibiotic was calculated by dividing the MIC of two drugs by combining it with the MIC of each drug alone. […] The FICI was considered as a synergistic effect ≤0.5, an additive >0.5 ˜≤1, an independent effect (indifference)>1.0 ˜≤2, and an antagonistic effect (antagonism) >2.

Series [4] has as its system E. coli. Kind of series: Antibacterial activity analysis (colony count after 2 hours in buffer). The format is cell-based, Escherichia coli. The settings on record: 2 μM; for antibacterial activity (number of bacterium): E. coli ATCC8739, ATCC25922, CCARM1A746, CCARM1B684, Tris-HCl pH 7.5; for effect of adding NaCl on antibacterial activity: E. coli ATCC 8739, Tris or Hepes buffer with 150 mM NaCl. On the procedure: (§1) The antibacterial activity of the purified protein was tested for E. coli and various K. pneumoniae strains. The bacterium were grown to an exponential phase (OD600=0.5) and harvested by centrifugation at 12,000×g for 3 minutes. Then, the pellets were washed with reaction buffer solution (20 mM Tris-HCl, pH 7.5) and diluted to about 10^6 cells/ml in the buffer solution. Then, 100 μl bacterial suspension was mixed with the purified endolysin of 100 μl in the reaction buffer solution and incubated at 37° C. for 2 hours. Finally, the mixture was diluted with PBS and loaded on an LB plate. After culturing at 37° C. overnight, the bacterial colonies were counted. All the analysis was performed in triplicate.
(§2) The same reaction was performed for the selected subject bacterium in 20 mM HEPES-NaOH, 150 mM NaCl [pH 7.4], and the unique antibacterial activity of Tris and dependence of endolysin for turgor pressure were excluded (FIG. 10a and FIG. 10b). […] The bacterial cells grown geometrically were cultured with 2 μM endolysin in low tonicity buffers (20 mM Tris-HCl, pH 7.5 or 20 mM HEPES, pH 7.5) or high tonicity buffers (buffer solution comprising 150 mM NaCl) at 37° C. for 2 hours. The cells treated with storage buffer solution (20 mM Tris-HCl, pH 7.5, 150 mM NaCl buffer solution (pH 7.5)) were used as a negative control group. The dotted line represents the detection limit (1 Log CFU/ml).
(§3) For this, endolysin EC340 at a concentration of 2 μM and each test bacterium were added to reaction buffer (20 mM Tris-Cl, pH 7.5) so that the final concentration was to be 200 μl, and were left at 37° C. for 2 hours. After 2 hours, the number of colonies of Acinetobacter baumannii, Pseudomonas aeruginosa and Escherichia coli was confirmed, and the result was shown in FIG. 3.

Series [5] concerns K. pneumoniae. Described as above. The format is cell-based, Klebsiella pneumoniae. The following applies: 2 μM; for antibacterial activity (number of bacterium): K. pneumoniae ATCC700603, KCTC2208, CCARM10143, F85, Tris-HCl pH 7.5; for effect of adding NaCl on antibacterial activity: K. pneumoniae KCTC 2208, Tris or Hepes buffer with 150 mM NaCl. On the procedure: as §1, §2
Series [6] relates to Acinetobacter baumannii (ATCC19606). The series is described as follows: Killing activity of endolysin, in vitro test. The series is classed as cell-based. The following applies: 2 μM, 37° C., 2 hours, 20 mM Tris-Cl pH 7.5. The procedure:
as §3

The subject of series [7] is Pseudomonas aeruginosa (ATCC 13388). The series is described as follows: Killing activity of endolysin, in vitro test. The series is classed as cell-based. The settings on record: 2 μM, 37° C., 2 hours, 20 mM Tris-Cl pH 7.5. On the procedure:
as §3

The subject of another series is E. coli ATCC 8739. Kind of series: Zymogram assay. The format is biochemical, Escherichia coli. The settings on record: 3 μg purified endolysin, gel with autoclaved E. coli ATCC 8739. The procedure:
Zymogram assay was performed with some modifications of the previously described method (Khakhum et al., 2016). In other words, an overnight culture of E. coli ATCC 8739 was harvested, washed with phosphate buffered solution (PBS) once, and then harvested by centrifugation at 4,000×g for 15 minutes. Then, the pellets were resuspended in 3 ml of deionized water. The cells were autoclaved and added to a 15% SDS-PAGE gel prior to polymerization. Then, 3 μg of purified endolysin (EC340, mtEC340 or LNT113) was mixed with 2× sample buffer (0.5 mM Tris-HCl, pH 6.8, 20% glycerol, 0.2% bromophenol blue) and loaded on SDS-PAGE. After electrophoresis, the gel was washed with deionized water for 1 hour and incubated in reaction buffer (1% Triton X-100, 20 mM Tris-HCl, pH 7.5) at a room temperature.

Substitutions are numbered along the chain they refer to. In names and notes the source's numbering stands. Like-named read-outs stand apart in the source and are kept apart here.

Turning to `CC1(C)S[C@@H]2[C@H](NC(=O)[C@H](N)c3ccccc3)C(=O)N2[C@H]1C(=O)O` [Ampicillin], the MIC of antibiotics with E. coli [1] (E. coli CCARM 1A746), with E. coli [1] (E. coli CCARM 1B684) and with K. pneumoniae [2] was at least 128 µg/mL each time.

As to `CO/N=C(\C(=O)N[C@@H]1C(=O)N2C(C(=O)O)=C(COC(C)=O)CS[C@H]12)c1csc(N)n1` [Cefotaxime], the results for the MIC of antibiotics with E. coli [1] (E. coli CCARM 1A746), in the series with E. coli [1] (E. coli CCARM 1B684) and in the series with K. pneumoniae [2] were 128 µg/mL, 0.25 µg/mL and 16 µg/mL, respectively.

For the molecule `CC(=O)OCC1=C(C(=O)O)N2C(=O)[C@@H](NC(=O)Cc3cccs3)[C@H]2SC1` [Cephalothin], the values for the MIC of antibiotics in the series with E. coli [1] (E. coli CCARM 1A746), with E. coli [1] (E. coli CCARM 1B684) and in the series on K. pneumoniae [2] were at least 128 µg/mL, 64 µg/mL and at least 128 µg/mL, respectively.

In the case of `O=C(O)c1cn(C2CC2)c2cc(N3CCNCC3)c(F)cc2c1=O` [Ciprofloxacin], the MIC of antibiotics with E. coli [1] (E. coli CCARM 1A746) was 128 µg/mL; in the series on E. coli [1] (E. coli CCARM 1B684), 64 µg/mL; with K. pneumoniae [2], at most 0.25 µg/mL.

Turning to Gentamicin, the results for the MIC of antibiotics in the series on E. coli [1] (E. coli CCARM 1A746), with E. coli [1] (E. coli CCARM 1B684) and with K. pneumoniae [2] were at least 128 µg/mL, 128 µg/mL and at least 128 µg/mL, respectively.

For Trimethoprim-sulfamethoxazole, the MIC of antibiotics with E. coli [1] (E. coli CCARM 1A746) is at least 128 µg/mL; in the series on K. pneumoniae [2], at least 32 µg/mL.

B1: EC340: endolysin of E. coli bacteriophage PBEC131 (EC340-M-11-12), 162 amino acids (protein)
chain: VSRNISNNGIKFTAAFEGFRGTAYRATPNEKYLTIGYGHYGPDVTPGKTITPGQGLLLLNRDMAKAVAAVDAAAHHSLTQAQFDAVCDLVYNAGAGVIAATTGTGKALRSGDIATLRAKLALFINQNGKPLLGLRRRTAGRLALFDGKPWQEAEAIGRAVKG
modifications: synthetic_EC340
notes: endolysin of E. coli bacteriophage PBEC131 (EC340-M-11-12), 162 amino acids
As for B1, the “MIC of endolysin combined with colistin: EC340” value with E. coli [3] (Colistin 0) was above 128 µg/mL; with E. coli [3] (Colistin 0.0625) it was 32 µg/mL; in the series on E. coli [3] (Colistin 0.125) it was 16 µg/mL; in the series with E. coli [3] (Colistin 0.25) it was below 2 µg/mL. Besides, the “antibacterial activity (number of bacterium)” value with E. coli [4] (2 hours) and with K. pneumoniae [5] (2 hours) was “excellent antibacterial activity” each time. Also, the “effect of adding NaCl on antibacterial activity” value with E. coli [4] and with K. pneumoniae [5] was “almost inactivated” in each case. Also, the killing activity result in the series on E. coli [4] (Escherichia coli (ATCC 8739), 37° C., 2 hours, 20 mM Tris-Cl pH 7.5) was “had the killing activity”; in series [6], “had the killing activity”; in series [7] it was “had the killing activity”. Also, in the series on E. coli ATCC 8739, the “enzymatic activity in zymogram” value was “enzymatic activity was observed”.

B2: mtEC340: mutant EC340 with H39S, D43H, T45E, A73V, A81S, T101A and I113V (protein)
chain: B1 chain with H39S, D43H, T45E, A73V, A81S, T101A, I113V
modifications: synthetic_mtEC340
notes: mutant EC340 with H39S, D43H, T45E, A73V, A81S, T101A and I113V
On to B2, for which the “MIC of endolysin combined with colistin: mtEC340” value with E. coli [3] (Colistin 0) is above 128 µg/mL; with E. coli [3] (Colistin 0.125 (row with mtEC340 16)), 16 µg/mL; in the series with E. coli [3] (Colistin 0.125 (row with mtEC340 32)), 32 µg/mL; in the series with E. coli [3] (Colistin 0.25) it was below 2 µg/mL. The “antibacterial activity (number of bacterium)” value in the series on E. coli [4] (2 hours) and in the series on K. pneumoniae [5] (2 hours) was “more excellent antibacterial activity” in each case. Further, the “effect of adding NaCl on antibacterial activity” value with E. coli [4] and in the series on K. pneumoniae [5] was “almost inactivated” throughout. The “increase of antibacterial activity versus EC340” value in the series on E. coli [4] (various E. coli strains, 2 hours) was “up to 1 log”; in the series on K. pneumoniae [5] (various K. pneumoniae strains, 2 hours), “up to 1 log”.
